Test results published in US11542537B2, “High-purity steviol glycosides” (PureCircle Sdn Bhd, priority 2012, dated 2023).

How the values were obtained:
Type in all cases: biochemical
[1] = LCMS of Rubusoside conversion products with UGTSL, UGTSL2, UGTLB; conditions: UGTSL2 2 hrs, UGTLB 5 hrs, UGTSL 45 hrs
Description: (§1) Conversion of stevioside with UGTSL and UGTSL2 was conducted in similar manner to Example 28, and the conversion of rubusoside with UGTSL and UGTSL2 was conducted similarly to Example 29. Conversions of rubusoside and stevioside with UGTLB was conducted similarly to Example 32.
(§2) The reaction mixtures were analyzed by LCMS to determine all reaction products.

[2] = Activity for Rubusoside to Rebaudioside E conversion (UGTSL, UGTSL2, UGTLB lysates); conditions: based on initial concentration of Rubusoside; reaction time 45 h. (UGTSL), 2 h. (UGTSL2)
Description: Activity tests were performed at 3 mL scale with 600 μL of lysate for the transformation of Rubusoside using 0.5 mM of substrate, 2.5 mM of UDP-Glucose and 3 mM MgCl2 in 50 mM Sodium Phosphate buffer at pH 7.2. The HPLC assay was performed as described in EXAMPLE 20.
Activity tests were performed at 3 mL scale with 600 μL of lysate for the transformation of Rubusoside using 0.5 mM of substrate, 2.5 mM of UDP-Glucose and 3 mM MgCl2 in 50 mM Sodium Phosphate buffer at pH 7.2. Samples were taken and analyzed by HPLC. The corresponding chromatogram is depicted in FIG. 65.

[3] = LCMS of Stevioside conversion products with UGTSL, UGTSL2, UGTLB; conditions: UGTSL2 2 hrs, UGTLB 2 hrs, UGTSL 22 hrs
Description: as §1, §2

[4] = Catalytic test of in-vitro expressed UDP-glucosyltransferases, Rebaudioside A to Rebaudioside D (HPLC CAD); conditions: 0.5 mM Rebaudioside A, 30° C., T24h sample; for Steviol glycoside conversion in reaction mixture: Reb UNK: Reb UNK later identified as reb D2; for Steviol glycoside conversion in reaction mixture: Reb A: remaining substrate
Description: 18 μL of plasmid solution (containing approximately 1.5 μg of plasmid) was used for in-vitro expression according to the Promega S30 T7 High-Yield Protein Expression System (ref: L1110) kit. The expression medium was produced as follows:
The prepared expression medium mix was added to the plasmid solution and the solution was allowed to incubate at 30° C. for 3 hours while mixing the mixture every 45 minutes. 5 μL of the mixture was frozen whereas the remainder was used for the catalytic test for the conversion of Rebaudioside A to Rebaudioside D.
(§3) 430 μL of a reaction mixture containing 0.5 mM Rebaudioside A, 3 mM MgCl2, 50 mM phosphate buffer (pH7.2) and 2.5 mM UDP-glucose was added to a 1.5 mL sterile microtube. 52 μL of the enzyme expression medium was added and the resulting mixture was allowed to react at 30° C. for 24 hours. 125 μL samples were taken after 2 hours, 16 hours and 24 hours and added to a 115 μL of 60% methanol and 10 μL of 2 N H2SO4. The quenched sample was centrifuged at 18,000 g for 2 minutes at RT. 200 μL was transferred to an HPLC vial and analyzed.
The HPLC assay was performed as follows:
as §3, with “RT.” for “RT. 200 μL was transferred to an HPLC vial and analyzed.”
The HPLC assay was performed as described in EXAMPLE 20.

Row | Molecule | LC-MS, peak area ratio (%) Reb D [1] | LC-MS, peak area ratio (%) Reb E [1] | LC-MS, peak area ratio (%) Rub [1] | LC-MS, peak area ratio (%) Unknown peak #1 (MW804) RT 30.70 min [1] | LC-MS, peak area ratio (%) Unknown peak #2 (MW804) RT 49.50 min [1] | LC-MS, peak area ratio (%) Unknown peak #3 (MW804) RT 50.40 min [1] | LC-MS, peak area ratio (%) Reb E [3] | LC-MS, peak area ratio (%) Stev [3] | LC-MS, peak area ratio (%) Unknown peak #2 (MW966) RT = 26.50 min [3] | Steviol glycoside conversion in reaction mixture: Reb D [4] | Steviol glycoside conversion in reaction mixture: Reb UNK [4] | Steviol glycoside conversion in reaction mixture: Reb A [4] | also measured
1 | UGTSL2: Solanum lycopersicum UDP-glucosyltransferase GI_460410132, SEQ ID 9, E. coli lysate (protein, listed as Escherichia coli) MATNLRVLMFPWLAYGHISPFLNIAKQLADRGFLIYLCSTRINLESIIKKIPEKYADSIHLIELQLPELPELPPHYHTTNGLPPHLNPTLHKALKMSKPNFSRILQNLKPDLLIYDVLQPWAEHVANEQNIPAGKLLTSCAAVFSYFFSFRKNPGVEFPFPAIHLPEVEKVKIREILAKEPEEGGRLDEGNKQMMLMCTSRTIEAKYIDYCTELCNWKVVPVGPPFQDLITNDADNKELIDWLGTKHENSTVFVSFGSEYFLSKEDMEEVAFALELSNVNFIWVARFPKGEERNLEDALPKGFLERIGERGRVLDKFAPQPRILNHPSTGGFISHCGWNSAMESIDFGVPIIAMPIHNDQPINAKLMVELGVAVEIVRDDDGKIHRGEIAETLKSVVTGETGEILRAKVREISKNLKSIRDEEMDAVAEELIQLCRNSNKSK | 6.73% | 52.88% | 3.54% | 12.02% | 9.94% | 12.77% | 42.56% | 20.01% | 5.56% | – | – | – | LC-MS, peak area ratio (%) Stev [1]: 2.12%; Rubusoside conv. (reactiontime) [2]: 80% (2 h.); LC-MS, peak area ratio (%) Reb D [3]: 1.70%; LC-MS, peak area ratio (%) Unknown peak #1 (MW966) RT = 22.60 min [3]: 4.48%; LC-MS, peak area ratio (%) Unknown peak #3 (MW966) RT = 29.50 min [3]: 25.70%
2 | S115N06 E1: hypothetical protein OsJ_04191, Oryza sativa Japonica Group, SEQ ID 6 (protein, listed as Oryza sativa) MHVVMLPWLAFGHILPFAEFAKRVARQGHRVTLFSTPRNTRRLIDVPPSLAGRIRVVDIPLPRVEHLPEHAEATIDLPSNDLRPYLRRAYDEAFSRELSRLLQETGPSRPDWVLADYAAYWAPAAASRHGVPCAFLSLFGAAALCFFGPAETLQGRGPYAKTEPAHLTAVPEYVPFPTTVAFRGNEARELFKPSLIPDESGVSESYRFSQSIEGCQLVAVRSNQEFEPEWLELLGELYQKPVIPIGMFPPPPPQDVAGHEETLRWLDRQEPNSVVYAAFGSEVKLTAEQLQRIALGLEASELPFIWAFRAPPDAGDGDGLPGGFKERVNGRGVVCRGWVPQVKFLAHASVGGFLTHAGWNSIAEGLANGVRLVLLPLMFEQGLNARQLAEKKVAVEVARDEDDGSFAANDIVDALRRVMVGEEGDEFGVKVKELAKVFGDDEVNDRYVRDFLKCLSEYKMQRQG | – | – | – | – | – | – | – | – | – | 0.14 % area | 7.0 % area | 92.8 % area | –
3 | UGTLB: Lycium barbarum UDP-glucosyltransferase GI_209954733, SEQ ID 10, E. coli lysate (protein, listed as Escherichia coli) MGTEVTVHKNTLRVLMFPWLAYGHISPFLNVAKKLVDRGFLIYLCSTAINLKSTIKKIPEKYSDSIQLIELHLPELPELPPHYHTTNGLPPHLNHTLQKALKMSKPNFSKILQNLKPDLVIYDLLQQWAEGVANEQNIPAVKLLTSGAAVLSYFFNLVKKPGVEFPFPAIYLRKNELEKMSELLAQSAKDKEPDGVDPFADGNMQVMLMSTSRIIEAKYIDYFSGLSNWKVVPVGPPVQDPIADDADEMELIDWLGKKDENSTVFVSFGSEYFLSKEDREEIAFGLELSNVNFIWVARFPKGEEQNLEDALPKGFLERIGDRGRVLDKFAPQPRILNHPSTGGFISHCGWNSVMESVDFGVPIIAMPIHLDQPMNARLIVELGVAVEIVRDDYGKIHREEIAEILKDVIAGKSGENLKAKMRDISKNLKSIRDEEMDTAAEELIQLCKNSPKLK | 1.29% | 9.21% | 13.49% | 4.07% | 66.67% | 5.27% | 3.12% | 43.11% | 53.78% | – | – | – | –
4 | S115N06 C2: UDP-glucoronosyl/UDP-glucosyl transferase family protein, Arabidopsis lyrata subsp. lyrata, SEQ ID 7 (protein, listed as Arabidopsis lyrata) MDDKKEEVMHIAMFPWLAMGHLLPFLRLSKLLAQKGHKISFISTPRNILRLPKLPSNLSSSITFVSFPLPSISGLPPSSESSMDVPYNKQQSLKAAFDLLQPPLTEFLRLSSPDWIIYDYASHWLPSIAKELGISKAFFSLFNAATLCFMGPSSSLIEESRSTPEDFTVVPPWVPFKSTIVFRYHEVSRYVEKTDEDVTGVSDSVRFGYTIDGSDAVFVRSCPEFEPEWFSLLQDLYRKPVFPIGFLPPVIEDDDDDTTWVRIKEWLDKQRVNSVVYVSLGTEASLRREELTELALGLEKSETPFFWVLRNEPQIPDGFEERVKGRGMVHVGWVPQVKILSHESVGGFLTHCGWNSVVEGIGFGKVPIFLPVLNEQGLNTRLLQGKGLGVEVLRDERDGSFGSDSVADSVRLVMIDDAGEEIREKVKLMKGLFGNMDENIRYVDELVGFMRNDESSQLKEEEEEDDCSDDQSSEVSSETDEKELNLDLKEEKRRISVYKSLSSEFDDYVANEKMG | – | – | – | – | – | – | – | – | – | 0.28 % area | 3.9 % area | 95.8 % area | –
5 | S115N01 G2: UDP-glycosyltransferase, Avena strigosa, SEQ ID 4 (protein, listed as Avena strigosa) MAVKDEQQSPLHILLFPFLAPGHLIPIADMAALFASRGVRCTILTTPVNAAIIRSAVDRANDAFRGSDCPAIDISVVPFPDVGLPPGVENGNALTSPADRLKFFQAVAELREPFDRFLADNHPDAVVSDSFFHWSTDAAAEHGVPRLGFLGSSMFAGSCNESTLHNNPLETAADDPDALVSLPGLPHRVELRRSQMMDPKKRPDHWALLESVNAADQKSFGEVFNSFHELEPDYVEHYQTTLGRRTWLVGPVALASKDMAGRGSTSARSPDADSCLRWLDTKQPGSVVYVSFGTLIRFSPAELHELARGLDLSGKNFVWVLGRAGPDSSEWMPQGFADLITPRGDRGFIIRGWAPQMLILNHRALGGFVTHCGWNSTLESVSAGVPMVTWPRFADQFQNEKLIVEVLKVGVSIGAKDYGSGIENHDVIRGEVIAESIGKLMGSSEESDAIQRKAKDLGAEARSAVENGGSSYNDVGRLMDELMARRSSVKVGEDIIPTNDGL | – | – | – | – | – | – | – | – | – | 0.6 % area | – | 99.4 % area | –
6 | S115N01 A1: UDP-glucosyltransferase Os03g0702500, Oryza sativa Japonica Group, SEQ ID 3 (protein, listed as Oryza sativa) MDDAHSSQSPLHVVIFPWLAFGHLLPCLDLAERLAARGHRVSFVSTPRNLARLPPVRPELAELVDLVALPLPRVDGLPDGAEATSDVPFDKFELHRKAFDGLAAPFSAFLDTACAGGKRPDWVLADLMHHWVALASQERGVPCAMILPCSAAVVASSAPPTESSADQREAIVRSMGTAAPSFEAKRATEEFATEGASGVSIMTRYSLTLQRSKLVAMRSCPELEPGAFTILTRFYGKPVVPFGLLPPRPDGARGVSKNGKHDAIMQWLDAQPAKSVVYVALGSEAPMSADLLRELAHGLDLAGTRFLWAMRKPAGVDADSVLPAGFLGRTGERGLVTTRWAPQVSILAHAAVCAFLTHCGWGSVVEGLQFGHPLIMLPILGDQGPNARILEGRKLGVAVPRNDEDGSFDRGGVAGAVRAVVVEEEGKTFFANARKLQEIVADREREERCIDEFVQHLTSWNELKNNSDGQYP | – | – | – | – | – | – | – | – | – | 2.1 % area | – | 96.7 % area | –
